For one series, the target named is Srs2 898 Y283A (Saccharomyces cerevisiae, UniProt P12954 1-898, Y283A). Briefly: EMSA; no ATP; Kd within 10% of WT (printed Y238A); 30 mM Tris-HCl pH 7.6, 100 mM KCl, 2 mM MgCl2, 1 mM DTT, 0.2 mg/mL BSA, 30 °C 10 min, no ATP; 1.3 µM (nucleotides) ssDNA, 10-100 nM protein; 10% native PAGE in. To be noted: protein: recombinant; tags: N-terminal GFP; label: 5' fluorescein.

In a further series the target is Srs2 898 R286A (Saccharomyces cerevisiae, UniProt P12954 1-898, R286A). The series is described as follows: EMSA; no ATP; Kd within 10% of WT (printed R268A); 30 mM Tris-HCl pH 7.6, 100 mM KCl, 2 mM MgCl2, 1 mM DTT, 0.2 mg/mL BSA, 30 °C 10 min, no ATP; 1.3 µM (nucleotides) ssDNA, 10-100 nM protein; 10% native PAGE in. The note with it: protein: recombinant; tags: N-terminal GFP; label: 5' fluorescein.

A further series has as its target Srs2 898 H100A (Saccharomyces cerevisiae, UniProt P12954 1-898, H100A). Briefly: EMSA; no ATP; Kd within 10% of WT; 30 mM Tris-HCl pH 7.6, 100 mM KCl, 2 mM MgCl2, 1 mM DTT, 0.2 mg/mL BSA, 30 °C 10 min, no ATP; 1.3 µM (nucleotides) ssDNA, 10-100 nM protein; 10% native PAGE in. The note with it: protein: recombinant; tags: N-terminal GFP; label: 5' fluorescein.
Another series deals with Srs2 898 F219A (Saccharomyces cerevisiae, UniProt P12954 1-898, F219A). The description is as above. The note with it: protein: recombinant; tags: N-terminal GFP; label: 5' fluorescein.
A further series addresses Srs2 898 H650A (Saccharomyces cerevisiae, UniProt P12954 1-898, H650A). The series is described as follows: EMSA; no ATP; 30 mM Tris-HCl pH 7.6, 100 mM KCl, 2 mM MgCl2, 1 mM DTT, 0.2 mg/mL BSA, 30 °C 10 min, no ATP; 1.3 µM (nucleotides) ssDNA, 10-100 nM protein; 10% native PAGE in. The note with it: protein: recombinant; tags: N-terminal GFP; label: 5' fluorescein.
The target of a further series is Srs2 898 F68A (Saccharomyces cerevisiae, UniProt P12954 1-898, F68A). The description is as above. To be noted: protein: recombinant; tags: N-terminal GFP; label: 5' fluorescein.
Another series concerns the target GFP-Srs2 1-898 (WT) (Saccharomyces cerevisiae, UniProt P12954 1-898). The description is as above. To be noted: protein: recombinant; tags: N-terminal GFP; label: 5' fluorescein.
For the next series, the target named is Srs2 898 F285A (Saccharomyces cerevisiae, UniProt P12954 1-898, F285A). The description is as above. The note with it: protein: recombinant; tags: N-terminal GFP; label: 5' fluorescein.
For another series, the target named is Srs2 898 N70A (Saccharomyces cerevisiae, UniProt P12954 1-898, N70A). The description is as above. To be noted: protein: recombinant; tags: N-terminal GFP; label: 5' fluorescein.
Substrate in series [1]: Nc1ncnc2c1ncn2[C@@H]1O[C@H](COP(=O)(O)OP(=O)(O)OP(=O)(O)O)[C@@H](O)[C@H]1O
The series is described as follows: ATP hydrolysis, gamma-32P-ATP, thin layer chromatography. Format: biochemical, Saccharomyces cerevisiae. To be noted: M13 ssDNA 2.5 µM (nucleotides), 2 mM MgCl2, 100 mM KCl, pH 7.6, 30 °C, 40 nM protein.

Substrate in series [2]: Nc1ncnc2c1ncn2[C@@H]1O[C@H](COP(=O)(O)OP(=O)(O)OP(=O)(O)O)[C@@H](O)[C@H]1O
The description is as above. Format: biochemical, Saccharomyces cerevisiae. To be noted: M13 ssDNA 2.5 µM (nucleotides), 2 mM MgCl2, 100 mM KCl, pH 7.6, 30 °C, 40 nM protein. From the text: ATP hydrolysis, gamma-32P-ATP, thin layer chromatography on Srs2^898 (GFP-Srs2 1-898) | The F68A, P671A, and Y775A mutants were all largely unperturbed with respect to ATP hydrolysis
The source holds these as a separate data set.

Residue numbers refer to the chain shown, from its start. Names may count otherwise.

Chain of GFP-Srs2 1-898 (WT) (P12954 1-898): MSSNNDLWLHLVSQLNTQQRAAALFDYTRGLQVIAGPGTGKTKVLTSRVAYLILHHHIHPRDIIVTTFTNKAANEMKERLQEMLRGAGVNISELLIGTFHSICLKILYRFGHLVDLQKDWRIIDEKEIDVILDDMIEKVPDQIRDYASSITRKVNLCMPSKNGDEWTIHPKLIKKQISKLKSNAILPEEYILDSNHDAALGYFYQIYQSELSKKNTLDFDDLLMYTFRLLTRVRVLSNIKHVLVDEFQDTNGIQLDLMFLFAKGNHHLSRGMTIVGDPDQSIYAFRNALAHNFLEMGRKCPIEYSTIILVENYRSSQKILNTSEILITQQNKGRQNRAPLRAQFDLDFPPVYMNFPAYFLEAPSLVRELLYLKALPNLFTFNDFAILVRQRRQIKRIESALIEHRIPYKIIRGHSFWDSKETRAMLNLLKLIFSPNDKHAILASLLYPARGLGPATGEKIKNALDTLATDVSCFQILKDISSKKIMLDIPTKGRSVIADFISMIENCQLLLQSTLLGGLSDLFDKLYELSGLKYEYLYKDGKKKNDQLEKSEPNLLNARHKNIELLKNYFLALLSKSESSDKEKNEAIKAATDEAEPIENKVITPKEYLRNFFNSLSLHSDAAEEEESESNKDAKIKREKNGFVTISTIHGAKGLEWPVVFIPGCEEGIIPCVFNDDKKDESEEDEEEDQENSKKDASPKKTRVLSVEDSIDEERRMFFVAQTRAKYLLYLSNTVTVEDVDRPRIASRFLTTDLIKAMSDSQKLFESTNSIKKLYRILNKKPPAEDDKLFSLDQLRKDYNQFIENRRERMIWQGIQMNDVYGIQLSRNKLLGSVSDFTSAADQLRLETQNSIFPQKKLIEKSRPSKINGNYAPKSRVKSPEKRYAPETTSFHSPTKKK
Chain of Srs2 898 N70A (P12954 1-898 N70A): as the sequence (P12954 1-898) above, with N70A counted along it
Chain of Srs2 898 H650A (P12954 1-898 H650A): as the sequence (P12954 1-898) above, with H650A counted along it
Chain of Srs2 898 F68A (P12954 1-898 F68A): as the sequence (P12954 1-898) above, with F68A counted along it

In the case of ATTAAGCTCTAAGCCATGAATTCAAATGACCTCTTATCAA (ssDNA) [40-nt ssDNA], the binding result with Srs2 898 Y283A, with Srs2 898 R286A, with Srs2 898 H100A and in the series with Srs2 898 F219A was “binds” each time. The Kd stood at 46 ± 3 nM with Srs2 898 H650A; 31 ± 2 nM with Srs2 898 F68A; 29 ± 3 nM with GFP-Srs2 1-898 (WT); 41 nM in the series with Srs2 898 F285A; 30 ± 3 nM in the series with Srs2 898 N70A.

B1: Srs2^898 (GFP-Srs2 1-898) (Saccharomyces cerevisiae S288C; F285A) (protein)
chain: MSSNNDLWLHLVSQLNTQQRAAALFDYTRGLQVIAGPGTGKTKVLTSRVAYLILHHHIHPRDIIVTTFTNKAANEMKERLQEMLRGAGVNISELLIGTFHSICLKILYRFGHLVDLQKDWRIIDEKEIDVILDDMIEKVPDQIRDYASSITRKVNLCMPSKNGDEWTIHPKLIKKQISKLKSNAILPEEYILDSNHDAALGYFYQIYQSELSKKNTLDFDDLLMYTFRLLTRVRVLSNIKHVLVDEFQDTNGIQLDLMFLFAKGNHHLSRGMTIVGDPDQSIYAARNALAHNFLEMGRKCPIEYSTIILVENYRSSQKILNTSEILITQQNKGRQNRAPLRAQFDLDFPPVYMNFPAYFLEAPSLVRELLYLKALPNLFTFNDFAILVRQRRQIKRIESALIEHRIPYKIIRGHSFWDSKETRAMLNLLKLIFSPNDKHAILASLLYPARGLGPATGEKIKNALDTLATDVSCFQILKDISSKKIMLDIPTKGRSVIADFISMIENCQLLLQSTLLGGLSDLFDKLYELSGLKYEYLYKDGKKKNDQLEKSEPNLLNARHKNIELLKNYFLALLSKSESSDKEKNEAIKAATDEAEPIENKVITPKEYLRNFFNSLSLHSDAAEEEESESNKDAKIKREKNGFVTISTIHGAKGLEWPVVFIPGCEEGIIPCVFNDDKKDESEEDEEEDQENSKKDASPKKTRVLSVEDSIDEERRMFFVAQTRAKYLLYLSNTVTVEDVDRPRIASRFLTTDLIKAMSDSQKLFESTNSIKKLYRILNKKPPAEDDKLFSLDQLRKDYNQFIENRRERMIWQGIQMNDVYGIQLSRNKLLGSVSDFTSAADQLRLETQNSIFPQKKLIEKSRPSKINGNYAPKSRVKSPEKRYAPETTSFHSPTKKK
notes: residues 1-898 of 1174 (C-terminal 276 residues omitted), N-terminal GFP tag kept, pET15b, Talon purified; expressed in E. coli Rosetta2 (DE3)
B1: in [1], the Michaelis-Menten constant (Km) worked out at 2750 ± 790 µM and the kcat stood at 25 ± 4 sec–1.

B2: Srs2^898 (GFP-Srs2 1-898) (Saccharomyces cerevisiae S288C; F68A) (protein)
chain: B1 chain with F68A, A285F
notes: as for B1
As to B2, in series [2], the Km was found to be 1520 ± 710 µM and the kcat turned out to be 49 ± 8 sec–1.

B3: Srs2^898 (GFP-Srs2 1-898) (Saccharomyces cerevisiae S288C; P671A) (protein)
chain: B1 chain with A285F, P671A
notes: as for B1
For B3, in [2], the Michaelis-Menten constant (Km) was found to be 1590 ± 720 µM and the kcat was 50 ± 7 sec–1.

B4: Srs2^898 (GFP-Srs2 1-898) (Saccharomyces cerevisiae S288C; H650A) (protein)
chain: B1 chain with A285F, H650A
notes: as for B1
In the case of B4, in [1], the Km was found to be 2910 ± 780 µM and the kcat is reported as 15 ± 2 sec–1.

B5: Srs2^898 (GFP-Srs2 1-898) (Saccharomyces cerevisiae S288C; Y775A) (protein)
chain: B1 chain with A285F, Y775A
notes: as for B1
B5: in series [2], the Km was 1610 ± 740 µM and the kcat is on record as 51 ± 8 sec–1.
